Data as given in paper PMC9493007.
“And” between values parts separate entries of the source, which are not always exact repeats. Equal values may be shown once.

Assays:
[1] = target: YsaN wild type full length (untagged) (Yersinia enterocolitica 8081); experiment: SEC; analytical Superdex 200 HR 10/30; about 10 µM protein pre-incubated with 1.5 mM ADP and 1.5 mM AlCl3 (ADP.AlFX); 50 mM Tris pH 8.0, 100 mM KCl, 4 mM MgCl2, 5 mM NaF, 1 mM DTT, 5% glycerol; 0.5 ml/min, room temperature; apparent molecular weight from a standard curve
[2] = target: YsaN∆83 (Yersinia enterocolitica 8081); experiment: negative-stain TEM
[3] = target: YsaN∆83 (Yersinia enterocolitica 8081); experiment: SEC; analytical Superdex 200 HR 10/30; about 10 µM protein pre-incubated with 1.5 mM ADP and 1.5 mM AlCl3 (ADP.AlFX); 50 mM Tris pH 8.0, 100 mM KCl, 4 mM MgCl2, 5 mM NaF, 1 mM DTT, 5% glycerol; 0.5 ml/min, room temperature; apparent molecular weight from a standard curve

Substance | stoichiometry N [1] | stoichiometry N [2] | stoichiometry N [3]
YsaN wild type full length (untagged) (enzyme) | 6 and 12 | – | –
YsaN∆83 (domain or fragment) | – | 6 | 6
